The record followed here is publication PMC7992120 (2018).

The experiment addresses linearized DAKD (N-methyl F6) (Homo sapiens, backbone amide N-methylation at F6 of peptide). Nature of the experiment: radioligand competition binding.

B1: B1 bradykinin receptor (B1R) (protein)
chain: MASSWPPLELQSSNQSQLFPQNATACDNAPEAWDLLHRVLPTFIISICFFGLLGNLFVLLVFLLPRRQLNVAEIYLANLAASDLVFVLGLPFWAENIWNQFNWPFGALLCRVINGVIKANLFISIFLVVAISQDRYRVLVHPMASRRQQRRRQARVTCVLIWVVGGLLSIPTFLLRSIQAVPDLNITACILLLPHEAWHFARIVELNILGFLLPLAAIVFFNYHILASLRTREEVSRTRCGGRKDSKTTALILTLVVAFLVCWAPYHFFAFLEFLFQVQAVRGCFWEDFIDLGLQLANFFAFTNSSLNPVIYVFVGRLFRTKVWELYKQCTPKSLAPISSSHRKEIFQLFWRN
What is called Ki is a measure of affinity in units of concentration, obtained from inhibition or displacement. Low values mean higher affinity, high ones lower affinity. The molecule B1 registered a Ki of 2.03 µM.
